Target: hemocyanin from Macrobrachium acanthurus (Macrobrachium acanthurus)
Assay: AUC; sedimentation velocity, HcMac at 100, 200 and 300 ug/mL, Tris-HCl 100 mmol/L with NaCl 50 mmol/L, pH 7.0, 20 °C, absorbance at 280 nm, SEDFIT c(S) and c(M); single 19S species of about 450 kDa; hexamer of monomeric subunits

stoichiometry N: 6
Substance: hemocyanin from Macrobrachium acanthurus (natural protein)

Reference: article PMC12108899
